Experiments:
[1] = biological target: carboxypeptidase A (CPA)-treated microtubules from porcine brain tubulin (porcine) (UniProt P02550); assay: TIRF microscopy, fluorescence intensity on MTs
[2] = biological target: microtubules assembled from porcine brain tubulin (porcine) (UniProt P02550); assay: TIRF microscopy, fluorescence intensity on MTs
[3] = biological target: microtubules assembled from porcine brain tubulin (porcine) (UniProt P02550); assay: TIRF microscopy, MT-MT sliding assay
[4] = biological target: microtubules assembled from porcine brain tubulin (porcine) (UniProt P02550); assay: single-molecule TIRF microscopy

integrated p150 intensity on the MT (minus background, per pixel) [1] [a.u.] | integrated p150 intensity on the MT (minus background, per pixel) [2] [a.u.] | lifetime (τ) of foci of two MT minus-ends brought into contact and held by DDB [3] [s] | dwell time at MT minus-ends, long population (τ2) [4] [s] | percent of incoming molecules that dwell at MT minus-ends with DDB clusters [4] [%] | percent of incoming molecules that dwell at bare (vacant) MT minus-ends [4] [%] | Substance
1100 | 2950 | – | – | – | – | TMR-labeled p150-SNAP (from UniProt Q14203-1 1-1278) (natural protein)
– | – | 14.4 | 54.8 | 83 | 77 | dynein-dynactin-BicD2 co-complex (DDB) (from UniProt Q921C5 1-820; P38650 1-4644; P28023 1-1280)

— article PMC6082141
